According to US20220229068A1, “DETECTION OF PROTEIN TO PROTEIN INTERACTIONS” (THE GOVERNING COUNCIL OF THE UNIVERSITY OF TORONTO, priority 2019, published 2022):
Each block holds one substance with its values, some of them ahead of it.

How the values were obtained:
Assay in all cases: SIMPL ELISA, bait-IN/prey-CIC
[1] = target: NFE2L1 (prey, CIC format) (human) (UniProt Q14494)
[2] = target: T1, NTF4 (prey, CIC format) (human) (UniProt P34130)
T1 sequence (looked up): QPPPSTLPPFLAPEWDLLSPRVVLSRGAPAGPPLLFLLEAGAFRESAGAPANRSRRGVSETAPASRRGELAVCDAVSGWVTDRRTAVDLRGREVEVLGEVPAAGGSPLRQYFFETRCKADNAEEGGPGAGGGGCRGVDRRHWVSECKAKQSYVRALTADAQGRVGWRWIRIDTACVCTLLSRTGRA

[3] = target: T2, MAD1L1 (prey, CIC format) (human) (UniProt Q9Y6D9)
T2 sequence (looked up): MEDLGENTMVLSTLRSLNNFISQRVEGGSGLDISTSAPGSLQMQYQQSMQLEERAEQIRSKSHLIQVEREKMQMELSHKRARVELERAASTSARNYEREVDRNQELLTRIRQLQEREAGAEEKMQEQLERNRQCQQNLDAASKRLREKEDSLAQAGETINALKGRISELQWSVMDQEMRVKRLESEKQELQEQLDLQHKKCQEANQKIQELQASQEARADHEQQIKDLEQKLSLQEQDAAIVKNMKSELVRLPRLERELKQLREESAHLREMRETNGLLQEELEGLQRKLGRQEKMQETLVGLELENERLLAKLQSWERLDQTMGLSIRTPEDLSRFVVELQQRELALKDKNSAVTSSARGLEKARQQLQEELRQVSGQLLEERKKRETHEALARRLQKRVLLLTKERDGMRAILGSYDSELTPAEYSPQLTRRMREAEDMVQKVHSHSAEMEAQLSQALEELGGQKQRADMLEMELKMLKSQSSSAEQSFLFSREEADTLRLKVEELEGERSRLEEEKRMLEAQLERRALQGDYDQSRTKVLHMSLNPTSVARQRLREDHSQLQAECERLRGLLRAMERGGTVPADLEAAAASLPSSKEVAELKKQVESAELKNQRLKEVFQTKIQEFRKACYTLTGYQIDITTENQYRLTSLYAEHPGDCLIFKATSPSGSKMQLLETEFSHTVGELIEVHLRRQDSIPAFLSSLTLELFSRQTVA

[4] = target: T3, CASP7 (prey, CIC format) (human) (UniProt P55210)
T3 sequence (looked up): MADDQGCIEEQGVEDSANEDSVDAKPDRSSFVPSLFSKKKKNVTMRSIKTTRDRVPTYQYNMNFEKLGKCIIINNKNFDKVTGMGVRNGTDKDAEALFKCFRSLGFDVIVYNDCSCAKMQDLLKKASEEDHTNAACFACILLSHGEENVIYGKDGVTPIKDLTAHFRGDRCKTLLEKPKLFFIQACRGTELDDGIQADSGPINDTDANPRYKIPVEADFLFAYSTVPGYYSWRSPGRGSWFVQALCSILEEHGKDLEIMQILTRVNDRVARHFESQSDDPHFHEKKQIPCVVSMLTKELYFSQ

[5] = target: RAN (prey, CIC format) (human) (UniProt P62826)
[6] = target: SMAD4 (prey, CIC format) (human) (UniProt Q13485)
[7] = target: T4, MAP2K5 (prey, CIC format) (human) (UniProt Q13163)
T4 sequence (looked up): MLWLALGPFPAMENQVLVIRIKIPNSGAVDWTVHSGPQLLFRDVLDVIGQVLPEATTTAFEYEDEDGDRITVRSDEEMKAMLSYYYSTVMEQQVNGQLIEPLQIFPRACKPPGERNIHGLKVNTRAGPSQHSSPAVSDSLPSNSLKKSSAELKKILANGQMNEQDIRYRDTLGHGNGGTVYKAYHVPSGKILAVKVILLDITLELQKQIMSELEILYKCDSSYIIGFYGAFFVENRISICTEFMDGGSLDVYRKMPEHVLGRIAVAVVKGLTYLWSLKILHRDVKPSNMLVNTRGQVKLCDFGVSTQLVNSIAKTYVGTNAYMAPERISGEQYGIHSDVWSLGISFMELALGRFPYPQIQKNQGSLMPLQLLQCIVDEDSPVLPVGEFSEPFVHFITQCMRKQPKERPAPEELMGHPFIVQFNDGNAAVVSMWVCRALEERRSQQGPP

[8] = target: CXCR2 (prey, CIC format) (human) (UniProt P25025)
[9] = target: T5, ORC4 (prey, CIC format) (human) (UniProt O43929)
T5 sequence (looked up): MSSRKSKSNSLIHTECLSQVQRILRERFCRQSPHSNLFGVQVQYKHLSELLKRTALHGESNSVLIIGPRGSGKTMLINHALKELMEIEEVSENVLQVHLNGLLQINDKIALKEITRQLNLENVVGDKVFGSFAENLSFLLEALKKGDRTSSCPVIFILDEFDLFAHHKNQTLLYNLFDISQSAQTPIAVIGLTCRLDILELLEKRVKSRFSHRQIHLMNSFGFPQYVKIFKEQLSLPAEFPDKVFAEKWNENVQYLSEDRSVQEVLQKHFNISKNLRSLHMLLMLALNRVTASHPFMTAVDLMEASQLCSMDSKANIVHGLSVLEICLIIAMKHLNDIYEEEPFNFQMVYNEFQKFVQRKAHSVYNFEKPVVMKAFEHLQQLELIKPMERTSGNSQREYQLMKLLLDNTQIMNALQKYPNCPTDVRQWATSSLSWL

[10] = target: SKP2 (prey, CIC format) (human) (UniProt Q13309)
[11] = target: BTRC (prey, CIC format) (human) (UniProt Q9Y297)
Chain of BTRC (prey, CIC format) (human) (Q9Y297 whole entry): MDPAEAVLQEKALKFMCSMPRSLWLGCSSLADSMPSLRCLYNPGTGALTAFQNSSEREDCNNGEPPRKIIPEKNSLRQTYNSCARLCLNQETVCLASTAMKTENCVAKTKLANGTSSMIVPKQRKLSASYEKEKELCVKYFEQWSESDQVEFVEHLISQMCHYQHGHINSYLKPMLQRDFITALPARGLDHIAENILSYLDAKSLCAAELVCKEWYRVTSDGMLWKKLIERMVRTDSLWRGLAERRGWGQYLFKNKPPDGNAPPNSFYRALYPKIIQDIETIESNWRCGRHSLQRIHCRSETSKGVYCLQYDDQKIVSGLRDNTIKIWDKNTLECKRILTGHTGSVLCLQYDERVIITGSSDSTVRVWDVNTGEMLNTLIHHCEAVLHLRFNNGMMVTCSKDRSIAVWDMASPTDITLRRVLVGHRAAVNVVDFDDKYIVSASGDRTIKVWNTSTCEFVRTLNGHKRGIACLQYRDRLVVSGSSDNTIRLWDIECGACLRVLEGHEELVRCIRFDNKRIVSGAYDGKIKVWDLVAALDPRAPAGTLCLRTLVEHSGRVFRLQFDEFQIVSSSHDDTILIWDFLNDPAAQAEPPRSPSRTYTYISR

Chain of CXCR2 (prey, CIC format) (human) (P25025 whole entry): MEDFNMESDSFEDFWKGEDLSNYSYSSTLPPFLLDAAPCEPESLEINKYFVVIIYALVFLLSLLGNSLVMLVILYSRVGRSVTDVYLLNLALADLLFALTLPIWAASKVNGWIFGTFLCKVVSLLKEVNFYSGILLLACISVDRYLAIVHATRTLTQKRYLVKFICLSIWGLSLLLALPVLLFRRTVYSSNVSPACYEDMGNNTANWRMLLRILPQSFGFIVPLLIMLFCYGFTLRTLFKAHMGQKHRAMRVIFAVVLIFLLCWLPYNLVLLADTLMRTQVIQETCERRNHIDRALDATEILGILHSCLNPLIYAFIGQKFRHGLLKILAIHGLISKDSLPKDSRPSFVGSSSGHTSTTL
Chain of NFE2L1 (prey, CIC format) (human) (Q14494 whole entry): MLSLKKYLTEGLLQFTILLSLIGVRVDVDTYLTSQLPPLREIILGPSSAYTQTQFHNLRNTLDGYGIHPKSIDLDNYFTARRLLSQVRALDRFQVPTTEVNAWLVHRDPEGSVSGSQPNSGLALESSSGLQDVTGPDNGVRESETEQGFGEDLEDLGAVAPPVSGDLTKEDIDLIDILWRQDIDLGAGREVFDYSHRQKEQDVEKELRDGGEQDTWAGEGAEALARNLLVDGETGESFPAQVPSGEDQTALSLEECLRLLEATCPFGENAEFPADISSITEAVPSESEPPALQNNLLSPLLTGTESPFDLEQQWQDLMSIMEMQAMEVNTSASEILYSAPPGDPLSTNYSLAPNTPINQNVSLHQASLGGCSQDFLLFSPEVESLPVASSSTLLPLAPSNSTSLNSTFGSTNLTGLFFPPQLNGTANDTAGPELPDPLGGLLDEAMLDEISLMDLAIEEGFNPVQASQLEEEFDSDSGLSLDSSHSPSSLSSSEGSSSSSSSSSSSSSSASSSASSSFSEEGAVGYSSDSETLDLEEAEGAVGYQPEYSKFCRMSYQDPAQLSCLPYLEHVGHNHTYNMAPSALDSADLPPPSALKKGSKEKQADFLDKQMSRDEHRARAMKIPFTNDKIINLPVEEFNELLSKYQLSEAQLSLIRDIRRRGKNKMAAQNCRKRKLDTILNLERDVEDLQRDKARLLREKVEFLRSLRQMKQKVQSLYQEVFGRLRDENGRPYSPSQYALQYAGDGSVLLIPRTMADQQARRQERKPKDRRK
Chain of RCC1 (bait, IN format) (P18754 whole entry): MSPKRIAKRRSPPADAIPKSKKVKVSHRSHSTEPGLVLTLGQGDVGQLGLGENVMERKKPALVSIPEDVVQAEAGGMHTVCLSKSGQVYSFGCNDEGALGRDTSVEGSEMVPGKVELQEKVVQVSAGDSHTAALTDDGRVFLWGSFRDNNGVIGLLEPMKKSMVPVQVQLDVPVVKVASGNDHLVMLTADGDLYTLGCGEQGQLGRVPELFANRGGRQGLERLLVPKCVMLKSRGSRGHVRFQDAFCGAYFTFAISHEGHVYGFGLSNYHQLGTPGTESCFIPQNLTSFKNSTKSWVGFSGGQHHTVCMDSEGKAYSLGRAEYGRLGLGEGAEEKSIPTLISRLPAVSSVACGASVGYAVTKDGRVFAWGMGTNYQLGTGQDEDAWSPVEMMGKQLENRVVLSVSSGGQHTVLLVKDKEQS
Chain of SKP2 (prey, CIC format) (human) (Q13309 whole entry): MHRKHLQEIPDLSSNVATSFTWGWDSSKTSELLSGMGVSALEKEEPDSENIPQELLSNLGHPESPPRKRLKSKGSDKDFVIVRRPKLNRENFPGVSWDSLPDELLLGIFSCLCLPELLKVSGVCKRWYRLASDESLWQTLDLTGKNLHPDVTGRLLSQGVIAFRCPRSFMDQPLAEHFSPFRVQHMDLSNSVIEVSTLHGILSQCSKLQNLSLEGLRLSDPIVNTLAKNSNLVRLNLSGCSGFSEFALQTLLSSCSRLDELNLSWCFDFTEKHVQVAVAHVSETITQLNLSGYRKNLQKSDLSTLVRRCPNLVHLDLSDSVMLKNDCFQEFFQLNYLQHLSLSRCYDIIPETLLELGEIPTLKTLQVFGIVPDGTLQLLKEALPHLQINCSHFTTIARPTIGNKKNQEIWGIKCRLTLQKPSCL
Chain of SMAD4 (prey, CIC format) (human) (Q13485 whole entry): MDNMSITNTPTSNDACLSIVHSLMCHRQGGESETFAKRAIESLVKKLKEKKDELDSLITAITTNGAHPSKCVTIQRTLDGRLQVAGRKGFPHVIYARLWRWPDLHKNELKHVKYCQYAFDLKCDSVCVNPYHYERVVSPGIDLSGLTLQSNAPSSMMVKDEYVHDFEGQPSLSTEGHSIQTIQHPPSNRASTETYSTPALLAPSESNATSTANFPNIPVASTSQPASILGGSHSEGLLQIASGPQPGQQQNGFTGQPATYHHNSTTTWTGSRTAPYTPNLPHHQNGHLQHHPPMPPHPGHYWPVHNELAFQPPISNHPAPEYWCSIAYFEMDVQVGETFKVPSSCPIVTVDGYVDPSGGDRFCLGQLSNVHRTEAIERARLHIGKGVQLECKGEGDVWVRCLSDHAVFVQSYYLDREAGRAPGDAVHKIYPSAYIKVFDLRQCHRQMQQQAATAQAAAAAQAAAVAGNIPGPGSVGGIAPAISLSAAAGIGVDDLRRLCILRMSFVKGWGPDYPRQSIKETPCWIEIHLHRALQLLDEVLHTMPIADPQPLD

- PLU mean [1]: 0.0819
- PLU mean [2]: 0.133
- PLU mean [3]: 2.52
Substance: MAD2L1 (bait, IN format) (from UniProt Q13257 1-205)

- PLU mean [4]: 0.125
- PLU mean [5]: 0.748
Substance: RCC1 (bait, IN format) (from UniProt P18754 1-421)

- PLU mean [6]: 0.101
- PLU mean [7]: 0.27
- PLU mean [8]: 0.178
- PLU mean [9]: 0.103
Substance: CXCL1 (bait, IN format) (from UniProt P09341 35-107) (ligand)

- PLU mean [10]: 0.376
- PLU mean [11]: 1.26
- PLU mean [8]: 0.107
Substance: SKP1A (bait, IN format) (from UniProt P63208 1-163)
